Source: patent US20260242735A1 (UNIVERSIT T BASEL, published 2026)

Tests used:
Experiment in all cases: flow cytometry on transfected cells, IgG
[1] = target: human CD33 I47E (human, UniProt P20138 18-364)
Experimental: (§1) An alanine scan on human CD33 was performed to the determine the residues on CD33 that are involved in binding to the antibodies investigated. […] Briefly, a mutation library of CD33 was created by high-throughput, site-directed mutagenesis. Each residue was individually mutated to alanine, with alanine codons mutated to serine. The mutant library was arrayed in 384-well microplates and transiently transfected into HEK293-T. Following transfection, cells were incubated with the indicated antibodies (IgG or Fab) at concentrations pre-determined using an independent immunofluorescence titration curve on wild type CD33. […] Binding of each antibody to each mutant clone was determined in duplicates. For each point, background fluorescence was subtracted from the raw data, which were then normalized to antibody reactivity with wild type CD33.
(§2) Antibodies were screened for binding to the human CD33 variants in IgG format. […] For each mutation, background fluorescence was subtracted from the raw data, which were then normalized to antibody reactivity with wild-type CD33.

[2] = target: human CD33 P46F (human, UniProt P20138 18-364)
Experimental: as §1, §2

[3] = target: human CD33 F44H (human, UniProt P20138 18-364)
Experimental: as §1, §2

[4] = target: human CD33 P48L (human, UniProt P20138 18-364)
Experimental: as §1, §2

[5] = target: human CD33 P48D (human, UniProt P20138 18-364)
Experimental: as §1, §2

[6] = target: human CD33 I47L (human, UniProt P20138 18-364)
Sequence of human CD33 I47L (P20138 18-364 I47L limits assumed): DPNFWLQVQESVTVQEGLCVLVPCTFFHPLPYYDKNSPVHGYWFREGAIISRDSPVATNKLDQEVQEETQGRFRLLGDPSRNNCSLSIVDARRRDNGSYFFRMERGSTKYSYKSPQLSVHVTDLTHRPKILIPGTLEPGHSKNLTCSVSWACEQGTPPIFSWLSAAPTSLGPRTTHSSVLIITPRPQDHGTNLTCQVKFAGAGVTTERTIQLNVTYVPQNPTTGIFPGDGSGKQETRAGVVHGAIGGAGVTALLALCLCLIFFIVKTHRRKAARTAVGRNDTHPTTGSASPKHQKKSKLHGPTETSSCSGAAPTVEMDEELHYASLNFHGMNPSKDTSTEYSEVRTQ
Experimental: as §1, §2

[7] = target: human CD33 Y50Q (human, UniProt P20138 18-364)
Experimental: as §1, §2

[8] = target: human CD33 P46S (human, UniProt P20138 18-364)
Experimental: as §1, §2

[9] = target: human CD33 Y50H (human, UniProt P20138 18-364)
Sequence of human CD33 Y50H (P20138 18-364 Y50H limits assumed): as the sequence (P20138 18-364 I47L limits assumed) above, with L30I, Y33H counted along it
Experimental: as §1, §2

[10] = target: human CD33 Y49L (human, UniProt P20138 18-364)
Sequence of human CD33 Y49L (P20138 18-364 Y49L limits assumed): as the sequence (P20138 18-364 I47L limits assumed) above, with L30I, Y32L counted along it
Experimental: as §1, §2

[11] = target: human CD33 Y49V (human, UniProt P20138 18-364)
Experimental: as §1, §2

[12] = target: human CD33 I47Q (human, UniProt P20138 18-364)
Sequence of human CD33 I47Q (P20138 18-364 I47Q limits assumed): as the sequence (P20138 18-364 I47L limits assumed) above, with L30Q counted along it
Experimental: as §1, §2

[13] = target: human CD33 Y50I (human, UniProt P20138 18-364)
Experimental: as §1, §2

[14] = target: human CD33 Y50P (human, UniProt P20138 18-364)
Sequence of human CD33 Y50P (P20138 18-364 Y50P limits assumed): as the sequence (P20138 18-364 I47L limits assumed) above, with L30I, Y33P counted along it
Experimental: as §1, §2

[15] = target: human CD33 Y50L (human, UniProt P20138 18-364)
Experimental: as §1, §2

[16] = target: human CD33 I47F (human, UniProt P20138 18-364)
Experimental: as §1, §2

[17] = target: human CD33 F44V (human, UniProt P20138 18-364)
Sequence of human CD33 F44V (P20138 18-364 F44V limits assumed): as the sequence (P20138 18-364 I47L limits assumed) above, with F27V, L30I counted along it
Experimental: as §1, §2

[18] = target: human CD33 Y50N (human, UniProt P20138 18-364)
Experimental: as §1, §2

[19] = target: human CD33 I47S (human, UniProt P20138 18-364)
Sequence of human CD33 I47S (P20138 18-364 I47S limits assumed): as the sequence (P20138 18-364 I47L limits assumed) above, with L30S counted along it
Experimental: as §1, §2

[20] = target: human CD33 P48Y (human, UniProt P20138 18-364)
Experimental: as §1, §2

[21] = target: human CD33 Y50D (human, UniProt P20138 18-364)
Experimental: as §1, §2

[22] = target: human CD33 T42K (human, UniProt P20138 18-364)
Experimental: as §1, §2

[23] = target: human CD33 Y49D (human, UniProt P20138 18-364)
Sequence of human CD33 Y49D (P20138 18-364 Y49D limits assumed): as the sequence (P20138 18-364 I47L limits assumed) above, with L30I, Y32D counted along it
Experimental: as §1, §2

[24] = target: human CD33 F44S (human, UniProt P20138 18-364)
Sequence of human CD33 F44S (P20138 18-364 F44S limits assumed): as the sequence (P20138 18-364 I47L limits assumed) above, with F27S, L30I counted along it
Experimental: as §1, §2

[25] = target: human CD33 I47T (human, UniProt P20138 18-364)
Sequence of human CD33 I47T (P20138 18-364 I47T limits assumed): as the sequence (P20138 18-364 I47L limits assumed) above, with L30T counted along it
Experimental: as §1, §2

[26] = target: human CD33 P48F (human, UniProt P20138 18-364)
Sequence of human CD33 P48F (P20138 18-364 P48F limits assumed): as the sequence (P20138 18-364 I47L limits assumed) above, with L30I, P31F counted along it
Experimental: as §1, §2

[27] = target: human CD33 I47V (human, UniProt P20138 18-364)
Experimental: as §1, §2

[28] = target: human CD33 F43L (human, UniProt P20138 18-364)
Experimental: as §1, §2

[29] = target: human CD33 P46D (human, UniProt P20138 18-364)
Experimental: as §1, §2

[30] = target: human CD33 F44T (human, UniProt P20138 18-364)
Experimental: as §1, §2

[31] = target: human CD33 Y50V (human, UniProt P20138 18-364)
Experimental: as §1, §2

[32] = target: human CD33 P48Q (human, UniProt P20138 18-364)
Experimental: as §1, §2

[33] = target: human CD33 P46L (human, UniProt P20138 18-364)
Sequence of human CD33 P46L (P20138 18-364 P46L limits assumed): as the sequence (P20138 18-364 I47L limits assumed) above, with P29L, L30I counted along it
Experimental: as §1, §2

[34] = target: human CD33 I47Y (human, UniProt P20138 18-364)
Experimental: as §1, §2

[35] = target: human CD33 I47P (human, UniProt P20138 18-364)
Experimental: as §1, §2

[36] = target: human CD33 F43V (human, UniProt P20138 18-364)
Experimental: as §1, §2

[37] = target: human CD33 F44Q (human, UniProt P20138 18-364)
Sequence of human CD33 F44Q (P20138 18-364 F44Q limits assumed): as the sequence (P20138 18-364 I47L limits assumed) above, with F27Q, L30I counted along it
Experimental: as §1, §2

[38] = target: human CD33 P48M (human, UniProt P20138 18-364)
Sequence of human CD33 P48M (P20138 18-364 P48M limits assumed): as the sequence (P20138 18-364 I47L limits assumed) above, with L30I, P31M counted along it
Experimental: as §1, §2

| Mean % WT Binding [1] [% WT binding] | Mean % WT Binding [2] [% WT binding] | Mean % WT Binding [3] [% WT binding] | Mean % WT Binding [4] [% WT binding] | Mean % WT Binding [5] [% WT binding] | Mean % WT Binding [6] [% WT binding] | Mean % WT Binding [7] [% WT binding] | Mean % WT Binding [8] [% WT binding] | Mean % WT Binding [9] [% WT binding] | Mean % WT Binding [10] [% WT binding] | Mean % WT Binding [11] [% WT binding] | Mean % WT Binding [12] [% WT binding] | Mean % WT Binding [13] [% WT binding] | Mean % WT Binding [14] [% WT binding] | Mean % WT Binding [15] [% WT binding] | Mean % WT Binding [16] [% WT binding] | Mean % WT Binding [17] [% WT binding] | Mean % WT Binding [18] [% WT binding] | Mean % WT Binding [19] [% WT binding] | Mean % WT Binding [20] [% WT binding] | Binder | other results |
| --- | --- | --- | --- | --- | --- | --- | --- | --- | --- | --- | --- | --- | --- | --- | --- | --- | --- | --- | --- | --- | --- |
| 122 | 92.6 | 91.3 | 104 | 115 | 99.1 | 103 | 110 | 92.2 | 97.9 | 121 | 107 | 118 | 98.1 | 108 | 105 | 98.9 | 108 | 91 | 79.1 | Refmab #6 (antibody, human IgG1, V domains shown) VH: QVQLQQPGAEVVKPGASVKMSCKASGYTFTSYYIHWIKQTPGQGLEWVGVIYPGNDDISYNQKFQGKATLTADKSSTTAYMQLSSLTSEDSAVYYCAREVRLRYFDVWGQGTTVTVSS VL: EIVLTQSPGSLAVSPGERVTMSCKSSQSVFFSSSQKNYLAWYQQIPGQSPRLLIYWASTRESGVPDRFTGSGSGTDFTLTISSVQPEDLAIYYCHQYLSSRTFGQGTKLEIK | Mean % WT Binding [21]: 129 % WT binding; Mean % WT Binding [22]: 91.2 % WT binding; Mean % WT Binding [23]: 117 % WT binding; Mean % WT Binding [24]: 86.1 % WT binding; Mean % WT Binding [25]: 97.2 % WT binding; Mean % WT Binding [26]: 93.8 % WT binding; Mean % WT Binding [27]: 101 % WT binding; Mean % WT Binding [28]: 87.9 % WT binding; Mean % WT Binding [29]: 104 % WT binding; Mean % WT Binding [30]: 93.9 % WT binding; Mean % WT Binding [31]: 108 % WT binding; Mean % WT Binding [32]: 111 % WT binding; Mean % WT Binding [33]: 107 % WT binding; Mean % WT Binding [34]: 105 % WT binding; Mean % WT Binding [35]: 114 % WT binding; Mean % WT Binding [36]: 91.8 % WT binding; Mean % WT Binding [37]: 102 % WT binding; Mean % WT Binding [38]: 103 % WT binding |
| 89.1 | 62 | 117 | 18.9 | 2.1 | 107 | 2.9 | 98.7 | 7.1 | 0.8 | 0.9 | 94.6 | 2.5 | 43.4 | 1.7 | 90.5 | 97.7 | 3.2 | 98.2 | 1.5 | Refmab #5 (antibody, human IgG1, V domains shown) VH: QVQLVQSGAEVKKPGASVKVSCKASGYTFTNYDINWVRQAPGQGLEWIGWIYPGDGSTKYNEKFKAKATLTADTSTSTAYMELRSLRSDDTAVYYCASGYEDAMDYWGQGTTVTVSS VL: DIQMTQSPSSLSASVGDRVTINCKASQDINSYLSWFQQKPGKAPKTLIYRANRLVDGVPSRFSGSGSGQDYTLTISSLQPEDFATYYCLQYDEFPLTFGGGTKVEIK | Mean % WT Binding [21]: 2.5 % WT binding; Mean % WT Binding [22]: 79.5 % WT binding; Mean % WT Binding [23]: 1.7 % WT binding; Mean % WT Binding [24]: 104 % WT binding; Mean % WT Binding [25]: 98.4 % WT binding; Mean % WT Binding [26]: 6 % WT binding; Mean % WT Binding [27]: 104 % WT binding; Mean % WT Binding [28]: 96.3 % WT binding; Mean % WT Binding [29]: 76 % WT binding; Mean % WT Binding [30]: 92.4 % WT binding; Mean % WT Binding [31]: 4.2 % WT binding; Mean % WT Binding [32]: 2.1 % WT binding; Mean % WT Binding [33]: 87.2 % WT binding; Mean % WT Binding [34]: 94.5 % WT binding; Mean % WT Binding [35]: 4.9 % WT binding; Mean % WT Binding [36]: 82.2 % WT binding; Mean % WT Binding [37]: 93.9 % WT binding; Mean % WT Binding [38]: 31.4 % WT binding |
